Series [1] deals with T1, RhEIN3-3 (N-terminal fragment with DNA-binding domain) (rose, UniProt M9XFM8 141-356).
T1 sequence: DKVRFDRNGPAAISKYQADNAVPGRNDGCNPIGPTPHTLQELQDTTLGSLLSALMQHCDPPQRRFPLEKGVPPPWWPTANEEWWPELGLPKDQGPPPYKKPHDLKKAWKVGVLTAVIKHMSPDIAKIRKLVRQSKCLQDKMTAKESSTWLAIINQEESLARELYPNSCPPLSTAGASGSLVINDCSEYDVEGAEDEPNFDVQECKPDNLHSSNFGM
Kind of series: competition; mutated competitor vs biotin-labelled N1; EMSA per Wang et al. 2011, LightShift chemiluminescent kit (Pierce); 1 ug recombinant protein, 2 nM biotin-labelled probe; buffer, salt, pH and temperature not. The settings on record: tags: GST (pGEX-2T), chain copies: 2.

Series [2] concerns the target T2, RhGAI1 (C-terminal fragment with binding domain) (rose, UniProt M9XGL2 238-618).
T2 sequence: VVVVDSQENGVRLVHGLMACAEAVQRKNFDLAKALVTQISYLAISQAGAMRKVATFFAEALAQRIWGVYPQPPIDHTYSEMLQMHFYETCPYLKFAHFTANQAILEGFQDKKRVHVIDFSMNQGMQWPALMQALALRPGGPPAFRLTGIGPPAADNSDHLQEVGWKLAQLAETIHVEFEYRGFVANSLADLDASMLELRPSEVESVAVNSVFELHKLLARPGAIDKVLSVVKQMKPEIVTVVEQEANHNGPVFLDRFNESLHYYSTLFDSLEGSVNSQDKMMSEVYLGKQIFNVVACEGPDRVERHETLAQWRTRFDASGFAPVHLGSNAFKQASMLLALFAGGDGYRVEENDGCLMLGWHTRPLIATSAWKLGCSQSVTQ
Kind of series: competition; mutated competitor vs biotin-labelled N3; EMSA per Wang et al. 2011, LightShift chemiluminescent kit (Pierce); 1 ug recombinant protein, 2 nM biotin-labelled probe; buffer, salt, pH and temperature not. The settings on record: tags: GST (pGEX-2T). (In general: In EMSA bound probe runs differently from free probe, usually more slowly.)

Series [3] has as its target T2, RhGAI1 (C-terminal fragment with …). Briefly: EMSA; competed by unlabelled probe; EMSA per Wang et al. 2011, LightShift chemiluminescent kit (Pierce); 1 ug recombinant protein, 2 nM biotin-labelled probe; buffer, salt, pH and temperature not. The settings on record: tags: GST (pGEX-2T), label: biotin, blunt.
The target of series [4] is T1, RhEIN3-3 (N-terminal fragment with …). The series is described as above. The settings on record: tags: GST (pGEX-2T), chain copies: 2, label: biotin, blunt.

Results on 4 molecules are retold here after paper PMC3830487, “A DELLA gene, RhGAI1, is a direct target of EIN3 and mediates ethylene-regulated rose petal cell expansion via repressing the expression of RhCesA2”.

B1: proRhGAI1 mutated probe (dsDNA)
DNA 1: CAGTCACGTTTTATACTCAGTAAGAGGTATTAAAATTCTAGAG
DNA 2: CTCTAGAATTTTAATACCTCTTACTGAGTATAAAACGTGACTG
In the case of B1, in series [1], the binding result was “no binding”.

B2: proRhCesA2 mutated probe (dsDNA)
DNA 1: GCAGAGGGCTGACTCAGTCGGTGGAGATTT
DNA 2: AAATCTCCACCGACTGAGTCAGCCCTCTGC
For B2, the binding result in series [2] was “no binding”.

B3: proRhCesA2 probe (dsDNA)
DNA 1: GCAGAGGGCTAATTTAGTCGGTGGAGAT
DNA 2: ATCTCCACCGACTAAATTAGCCCTCTGC
Regarding B3, the binding result in series [3] is “binds”.

B4: proRhGAI1 probe (dsDNA)
DNA 1: CGTTTTATACTAATTCAAAGGTATTAA
DNA 2: TTAATACCTTTGAATTAGTATAAAACG
Regarding B4, the binding result in series [4] was “binds”.
